# Measurements reported in the supplement of paper PMC9732359.
# ± gives the uncertainty stated by the source.
# Experiment: protein stability index of a GFP-peptide fusion (yeast GPS) (PSI 1-4); higher = more stable; sorted into four equal gates, so the index is relative within each strain
# Method in brief: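 Tiled yeast protein peptides of 17 residues were each joined downstream of GFP, on plasmids that also express Cherry. The pooled library was maintained in yeast, and mid-log cultures in leucine-free medium were sorted into four equal gates on the GFP/Cherry ratio. Plasmids from every gate were amplified by PCR and sequenced on Illumina, with barcodes linking reads to strains. The protein stability index of a peptide is its gate-number-weighted read frequency summed over the gates.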
Sequence,protein stability index (doa10∆),protein stability index (pdr5∆),protein stability index (san1∆),protein stability index (ubr1∆)
DHNGVPFPQYPAGMNET [ITC1],1.97 ± 0.12,2.59 ± 0.11,2.8 ± 0.19,2.42 ± 0.064
DIAFVLNNLPYKNEDVT [YCS4],2.61 ± 0.053,3.08 ± 0.051,2.94 ± 0.037,3 ± 0.065
DICQIDTNAPVAATITS [SRB8],2.29 ± 0.063,2.45 ± 0.083,2.36 ± 0.096,2.26 ± 0.049
DIFGANAASGSNSNVTN [YOR098C/NUP1],2.11 ± 0.064,1.65 ± 0.054,1.64 ± 0.11,2.63 ± 0.079
DIILGQNIKAPSVKRQK [PRP8],2.44 ± 0.081,2.35 ± 0.078,1.53 ± 0.16,2.51 ± 0.072
DIISGKIHSILPVMESL [YJR042W/NUP85],2.85 ± 0.074,3.13 ± 0.11,2.84 ± 0.11,2.4 ± 0.062
DIPELSFFHQSNMQKSL [RPN3],2.56 ± 0.065,2.13 ± 0.067,2.8 ± 0.068,2.87 ± 0.045
DIRDSSCQGNVIYRNSL [YMR129W/POM152],3.5 ± 0.22,3.21 ± 0.087,3.38 ± 0.06,3.37 ± 0.084
DISGTMSGGGNHVAKGL [SMC4],3.19 ± 0.2,,3.25 ± 0.13,
DIYSHEYKVITSLQGTY [YMR129W/POM152],1.89 ± 0.064,2.43 ± 0.07,2.65 ± 0.075,2.49 ± 0.048
DKGLLPYAIMETANEIL [RPO31],2.95 ± 0.14,2.71 ± 0.19,,2.25 ± 0.13
DKKEMTIYNNIREGQNQ [SIR3],3.21 ± 0.056,3.37 ± 0.07,3.02 ± 0.041,3.27 ± 0.034
DKKSCSVDDVLSALDHI [DPB4],3.29 ± 0.086,3.23 ± 0.089,3.31 ± 0.054,3.22 ± 0.044
DKQAEGTPLFTFGKKAD [YOR098C/NUP1],2.43 ± 0.06,2.43 ± 0.078,2.5 ± 0.077,1.75 ± 0.066
DKQDGTAKPAFSFGAKP [YJL041W/NSP1],3.24 ± 0.087,3.29 ± 0.077,3.22 ± 0.057,3.35 ± 0.086
DKYHPGYFGKVGMRYFH [RPL28],3.23 ± 0.062,2.99 ± 0.072,2.99 ± 0.083,2.96 ± 0.044
DKYKLYPVRIPRLDTSK [YJR042W/NUP85],3.01 ± 0.075,2.9 ± 0.075,3.12 ± 0.059,3.24 ± 0.065
DLASSKEVLAKIVDLLA [RPN5],2.85 ± 0.21,3.43 ± 0.24,2.98 ± 0.091,2.97 ± 0.11
DLAVCATIIGIISTAIA [ECM29],1.95 ± 0.052,2.07 ± 0.043,1.99 ± 0.054,1.95 ± 0.029
DLEEVKRFQVLYPCYFD [SEC65],2.28 ± 0.14,2.75 ± 0.088,2.42 ± 0.25,2.34 ± 0.12
DLKESMVKGLLKSFTES [ECM29],3.34 ± 0.26,3 ± 0.19,2.8 ± 0.1,3.34 ± 0.096
DLLKNAPLFKKNSSRPM [SMD3],2.27 ± 0.047,1.76 ± 0.043,1.77 ± 0.11,1.62 ± 0.034
DLSGADIQAMCTEAGLL [RPT2],2.73 ± 0.12,3.48 ± 0.13,3.46 ± 0.05,3.42 ± 0.062
DLSISALLGDKIYNFGE [RPN9],3.08 ± 0.068,3.11 ± 0.065,3.15 ± 0.061,3.12 ± 0.091
DLSLIVKARHGGCDYIF [CYT1],2.74 ± 0.097,2.94 ± 0.1,2.72 ± 0.1,2.46 ± 0.061
DLSRNGRNGSNGNDESS [NUT1],3.19 ± 0.078,3.33 ± 0.09,3.18 ± 0.059,3.14 ± 0.068

Sequence,protein stability index (doa10∆),protein stability index (pdr5∆),protein stability index (san1∆),protein stability index (ubr1∆)
DLVRDIDIDKLIQLGVK [SRP72],,,2.71 ± 0.15,
DLYHFALNYENEAGRKL [SNF2],2.94 ± 0.16,3.13 ± 0.098,3.26 ± 0.083,3.76 ± 0.26
DMDPLAVSAASVVSMSN [SIR2],1.67 ± 0.065,2.31 ± 0.12,1.71 ± 0.18,2.19 ± 0.072
DMQSSVDTGLQPQHPHY [YLR018C/POM34],2.56 ± 0.043,2.86 ± 0.039,2.96 ± 0.036,2.956 ± 0.029
DNDSLTDLESLSSGESN [SIR4],3.15 ± 0.096,3.31 ± 0.12,3.07 ± 0.074,3.09 ± 0.073
DNEGVASKSKKKFNMGK [RPC53],3.33 ± 0.091,3.12 ± 0.13,3.15 ± 0.08,3.42 ± 0.08
DNEQNLESDFVTGASQF [PRE2],2.92 ± 0.095,3.33 ± 0.098,3.23 ± 0.077,2.96 ± 0.076
DNGESAFRTLRLARSEK [RPL13A],3.39 ± 0.24,3.51 ± 0.15,,3.31 ± 0.084
DNHSGDATANATANATA [DSN1],3.22 ± 0.12,3.08 ± 0.064,3.32 ± 0.089,3.13 ± 0.071
DNKMDSVKEDVKNNQEL [SMC4],2.85 ± 0.14,3.02 ± 0.084,2.51 ± 0.17,3.36 ± 0.14
DNNNGDDDDEDDDEIVM [SKP1],3.04 ± 0.065,2.93 ± 0.052,2.89 ± 0.04,2.99 ± 0.048
DNNYNTAETNNKVHETS [YDL088C/ASM4],2.99 ± 0.078,2.92 ± 0.069,2.78 ± 0.052,2.81 ± 0.051
DNPLRQIPHFNNKILEK [BRR2],3.08 ± 0.092,3.1 ± 0.084,3.08 ± 0.086,3.19 ± 0.08
DNSATSYYELETIIFDS [RRI1],3.19 ± 0.076,3.17 ± 0.055,3.11 ± 0.042,3.06 ± 0.041
DNSFNELTDNMSDFVPI [MCD1],2.95 ± 0.082,3 ± 0.089,2.92 ± 0.052,3.23 ± 0.064
DNVQANDPAREKFSSFI [SNF12],2.94 ± 0.11,3.01 ± 0.086,3.1 ± 0.069,3.11 ± 0.043
DNVSSQQMHEVRKELRG [RPP0],2.4 ± 0.14,2.45 ± 0.18,,2.82 ± 0.13
DPDLGLDLMFDEVYVQN [YJL039C/NUP192],3.06 ± 0.13,3.04 ± 0.11,2.93 ± 0.11,2.85 ± 0.038
DPFKTSSFNKRSKFLST [IRR1],2.15 ± 0.074,2.46 ± 0.053,2.04 ± 0.082,2.12 ± 0.057
DPFSDVDDDQDYVVAPG [GRR1],2.56 ± 0.12,2.17 ± 0.2,1.74 ± 0.19,3.55 ± 0.24
DPLAKVNVLLQSYFSQL [BRR2],1.28 ± 0.049,1.78 ± 0.054,1.58 ± 0.092,1.54 ± 0.05
DPNIKVNDTVKIDLASG [RPS4A],2.81 ± 0.079,2.75 ± 0.063,2.73 ± 0.087,2.41 ± 0.053
DPTLTTTTSFTTSEATA [RPN4],2.85 ± 0.075,2.98 ± 0.067,2.58 ± 0.057,2.92 ± 0.066
DPWNKLKHTDYWYEQDS [RPB3],,,,2.99 ± 0.12
DQDKVNFASGDNNTASN [RPB3],2.85 ± 0.16,2.36 ± 0.14,,2.5 ± 0.18
DQMVVGWYHSHPGFGCW [RPN11],2.57 ± 0.079,2.92 ± 0.063,2.37 ± 0.069,2.21 ± 0.087
